The values that follow come from PMC4134560.

For orientation: Kd means the constant that tells how readily two partners part at equilibrium.

In this assay the target is BCL-xLΔC (BCL-xL construct lacking 22 C-terminal residues), Q07817.
Sequence of BCL-xLΔC (BCL-xL construct lacking 22 C-terminal residues), Q07817 (Q07817 1-211, stated change not applied): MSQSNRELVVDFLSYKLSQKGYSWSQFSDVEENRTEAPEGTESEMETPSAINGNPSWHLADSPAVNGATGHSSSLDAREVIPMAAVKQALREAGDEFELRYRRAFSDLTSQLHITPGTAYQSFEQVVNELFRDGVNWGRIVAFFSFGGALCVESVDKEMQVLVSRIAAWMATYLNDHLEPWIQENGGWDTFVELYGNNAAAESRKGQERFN

The molecule STKKLSECLKRIGDELDSNM (modifications not checked) [BAX BH3 domain peptide] yielded a Kd of 500 nM. This counts as sub-micromolar.
